Data reported in the supplement of paper PMC12764529.
± gives the half width of the 95% confidence interval.

Assays:
[1] = folding stability dG unfold (combined trypsin and chymotrypsin); higher = more stable
In short: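 Bayesian fitting of sequencing counts gave K50 for each design. Unfolding free energy followed by setting this against a sequence-predicted unfolded-state K50 and a shared folded-state K50, either per protease or with trypsin and chymotrypsin combined. The designs, under 80 residues and lacking cysteine, were digested in a PA-tagged cDNA display format at 11 threefold-diluted protease concentrations and without protease, and only those with AlphaFold2 dimer inter-PAE above 15 were kept.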

[2] = folding stability dG unfold from trypsin proteolysis; higher = more stable
Method: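 Folding stability of de novo designed mini-proteins (<80 aa, no Cys; designed by TrROS, TrMRF, ProteinMPNN and the joint model) was measured by cDNA display proteolysis with trypsin and chymotrypsin. Each protease was used at 11 concentrations in a threefold dilution series plus a no-protease condition. K50 was inferred by Bayesian fitting of sequencing counts, and dG unfold was derived against a sequence-predicted unfolded-state K50 (Tsuboyama et al. method). Sequences shown include variable-length N-terminal GS-type padding (SAGGSAGG...) inside a display construct carrying a PA tag. Rows were kept only if the AF2 dimer inter-PAE was >15, to exclude likely homo-oligomers.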

Sequence	folding stability dG unfold [1] [kcal/mol]	folding stability dG unfold [2] [kcal/mol]
SAGGSAGGEKKYEVVEKKELTLEDIEKADEILVVGKDGKVFKSRDDVKAAAEKGEKITVYVVKKSAGGSAGG [r6_827_TrROS_Hall]	< -1	0.0471 ± 0.46
SAGGSAGGSASSPSSPVKVTVTVTAPDSLVKTITVTKTPEGVIDLVLPSDIPSDYKITIIESAGGSAGGSAG [r3_44_JUSTAS]	-0.699 ± 0.51	0.0537 ± 0.08
SAGGSAGGYVEVTIMIPPDDLDEIKEIAEPFGFTSVETERVPDNPMVVVKIEVKIPKEDDKDNKSAGGSAGG [r6_273_TrROS]	-0.139 ± 0.2	0.427 ± 0.054
SAGSMPVESTSERKLEKDGVATVTTTSYPDASPGGTDTVTVTLHPGESESATTTYTQPPGAPPLTVSLESAG [r5_47_JUSTAS]	< -1	-1.05 ± 0.27
SAGKITIEYDKETNTVTVTIEIEIEVINEDGSIEKKKITITVKVKVDKKTNKVELLSLDEILKKLEELLSAG [r5_239_TrROS_Hall]	3.81 ± 0.36	2.92 ± 0.2
SAGGPKLYIMIPPELRDNFPDIEIRPVEIPDDNIEIEIKFPGKKVTFPIYIFDPDGKIVEPQTITIEPSAGG [r13_129_TrROS]	0.226 ± 0.27	0.501 ± 0.076
SAGVEELAEKIAKELEGEDFEVEAEVDPEKGTITVVVKTPDYVVVKEIYIDPKNDKPVMDVKVFKPNESAGG [r19_2_TrMRF]	-0.954 ± 0.7	0.241 ± 0.059
SAGGSENPNDPRPVVPVGVAVVDIEIHGHPDMTEEERLAAVEEAVEALEGLEVEHPDGHPTILLAGSAGGSA [r2_149_TrMRF]	< -1	-0.161 ± 0.071
SAGGSAGGSAMLTKTIKLPNGKPASVTITTLSEGSSPGSSVDPKLVINADPNIPKEIVDKLLSAGGSAGGSA [r18_272_JUSTAS]	-0.685 ± 0.13	-0.624 ± 0.077
SAGGSAGGSAGGSMKVEKFTEIITTPDGKPELIVEKEKTTTPNGGTKTTVTKIIPAKLLSAGGSAGGSAGGS [r4_117_JUSTAS]	< -1	-0.306 ± 0.38
SAGGSAGGSGMKPAKVLKVEEFFDPKNNTSFKKVEAELPDRKITLELPPGEPVDENSTILVEESAGGSAGGS [r20_49_JUSTAS]	-0.759 ± 0.47	-0.428 ± 0.28
SAGGWMPIEDLKDIPENMPPGYKITIRNPGNGQEGTFEYNKDGGIKIEDPGKPVEIPPGAYIDEIEPSAGGS [r8_162_TrROS]	-0.679 ± 0.71	0.654 ± 0.12
SAGGSAGGSTPPLTTETEAVIEIEGGLYSVKVTQLPPDETLMTIPANGMIIRETPDKIEIRPESAGGSAGGS [r12_737_JUSTAS]	< -1	-0.374 ± 0.28
SAGGSAGGSMMKVRVYARNKDGEEVPVEEIEIPPEVETPEEALKLAEELAKKEGVEEVRVEIESAGGSAGGS [r12_569_TrROS_Hall]	-0.609 ± 0.38	-0.13 ± 0.19
SAGGSAGGSMVLIEIYFKGPEKPIVFPAEGPEEVVEKLLELVEENPELGLDNIAEIRAYPGEESAGGSAGGS [r12_852_TrMRF]	0.0303 ± 0.28	0.425 ± 0.074
SAGGSASMITSTLTDPSTGTSSTLPTEVLQKLLDENPPDSNLVLPTGPKPVTVKVEPEKGLATFTGSAGGSA [r15_350_JUSTAS]	-0.989 ± 0.29	0.153 ± 0.039
SAGGSAGGSAMKPERIELPGNEVAVIEKVPEAGVYIVTFKKPEGDEPLGEKIFKPDEIDLKLESAGGSAGGS [r20_190_JUSTAS]	< -1	-1.17 ± 0.24
SALPPEEVKKLARDIMREFNPDNGFKPEDVDVDPNEGTIMVDWRMPDPNGKRHRMPFQIQVDKDGKIKISAG [r14_183_TrROS]	< -1	-0.306 ± 0.36
SAGGSAGGSAGGDPVTVLSIKPEPGKLTVTTNTRADGSTTTTTVSPENPPNIKPGEPLSSAGGSAGGSAGGS [r10_834_JUSTAS]	0.109 ± 0.18	0.552 ± 0.04
SAGAGTVASPEEAEELVEELRAALPPEATITRDPTPEGGVRFTVRLPGEGRVLEMEFDPARDTTARRPESAG [r5_358_JUSTAS]	< -1	-0.391 ± 0.083
SAGGSAGGSAGGSMRYDIVEDPETGTVTINRYVVYPPGIEKKTEGEIVPASTVPPGDLLGSAGGSAGGSAGG [r7_455_JUSTAS]	< -1	-0.0505 ± 0.29
SAGGSAGGSAGGSSSLPLSTGTIPLEELEAQGGPIVEVTVLLFSGSSNRTIVMDLPPELVSAGGSAGGSAGG [r7_116_JUSTAS]	-0.596 ± 0.31	-0.372 ± 0.29
SAGGSAGGSSDTRTIPIPIDGYPVRISIDMNGSQTIEFPNPENKDDLKDLIPPGYNITEIEPWSAGGSAGGS [r12_9_TrROS]	< -1	-0.999 ± 0.36
SAGGSAGGSMSTSESVTVTFPDGSVRKATILKQEKLPNGTVPVEIVDEGGTSVGTRNWTVTAESAGGSAGGS [r12_735_JUSTAS]	< -1	-0.456 ± 0.28

Sequence	folding stability dG unfold [1] [kcal/mol]	folding stability dG unfold [2] [kcal/mol]
SAGGSAGGSATVDEVIKEAREEAREEHPNYPPGQTHTIKIRDPDNGEKVKIRFTNDGKIEISAGGSAGGSAG [r3_441_TrROS]	< -1	-0.0324 ± 0.057
SAGGSAGGSAGGDAILIEVESPEDAVEAARELAEKEFGIDPENFPINVVVDEPDGKALIASAGGSAGGSAGG [r7_387_TrMRF]	-0.404 ± 0.25	0.743 ± 0.019
SAGGSASYSSLKITIIDTGTTTTVPPGATTTPTVVKLPDNKTAIITTTTPPDGTTATTVELFDNDKSAGGSA [r15_559_JUSTAS]	< -1	-0.717 ± 0.12
SAGGSAGGSAGSMPIVLRAEFPSNDETVEIPVTSPEEAERVAQELAAQPDWPLEKVDFGGSAGGSAGGSAGG [r11_951_JUSTAS]	< -1	0.414 ± 0.064
SAGGSAGGSAGGMYIATFKPPDGSEITVKLNPGEKVTIKLKDGTPAGVVSKKAVSPELLSAGGSAGGSAGGS [r10_422_JUSTAS]	-0.361 ± 0.68	-0.245 ± 0.17
SGSPSTPVTITVEFPPRLTTVLYREPTRPPLGYLLVPEPSRTETITVPVSEVAAVKAELEPRGMTVTVTASA [r9_167_JUSTAS]	< -1	-0.69 ± 0.33
SAGGSAGGMVEHVVTVPPSQVEEVIEEAKPKPVVEVKVEKVPGRDEVVVTMKYEIPEEELLKKLSAGGSAGG [r6_273_JUSTAS]	< -1	-0.704 ± 0.084
SAGGNWRPVERPIPIEPGMPPEEFIDEIADELPPGWRIDKPEPHPDNNYFKITVYDPNDGNQVEILFSAGGS [r16_250_TrROS]	0.122 ± 0.25	0.363 ± 0.15
SAGGSAGGSDILKNLPPGHKRVEIMFIPNMPMEKMKRMAKEIAPILRKRGVDVEIKVIPPDEMSAGGSAGGS [r12_456_TrROS]	0.118 ± 0.36	0.859 ± 0.17
SAGGSAGGSAGGSQELTIKIPPGEPDVRIFFPDGGEEHEIPPGDEREIELSPDKIAVQPSAGGSAGGSAGGS [r10_46_TrROS]	-0.148 ± 0.25	0.763 ± 0.059
SAGGSAGGSAGGGMTTVTIEVPPELSEEEVRRAAAELVAAGRPVPVTVERLPEDRVVVVTSAGGSAGGSAGG [r7_283_JUSTAS]	-0.0348 ± 0.082	0.68 ± 0.021
SITASAKHPEEAIELAEKLKKELEKLLGPDTKVPITLYDDKGNPATFPITLKKKKPKVIYDPEKGLYRDESA [r9_596_TrMRF]	-0.332 ± 0.55	0.042 ± 0.25
SAGGSAGGSAGGSSVSSLSIKNPPSDPKGILSSVSPEGKVVLTTVNPDGSLTTTVVDVNSAGGSAGGSAGGS [r4_177_JUSTAS]	0.414 ± 0.2	0.787 ± 0.065
SAGGSAGGSAESIDAKVTPVALPSGPRYLIEVNNPAAPEIPKSVVEEELAKKYPKERVELLSAGGSAGGSAG [r3_226_JUSTAS]	< -1	-0.516 ± 0.1
SAGGMTIVKPSDGTPQFIEDEEAEKLVKELEEKGLLKKEKPGDITIPLPTVDPVTGKPRTTTITILPESSAG [r5_243_JUSTAS]	< -1	-0.962 ± 0.14
SAGGGKIVFTEGYLLAEFPPTDLRVARPIPPDRPELALEEVADAFIAEMEAEFGFPPPEDVRVEVLASAGGS [r8_402_TrMRF]	-0.0645 ± 0.2	0.28 ± 0.058
SAGGSAGGSAGGLSPESFYTVEVYNKDGTKLGPAQVVSTGTGKVVIPIEPDVEIILNPSSAGGSAGGSAGGS [r10_1257_JUSTAS]	-0.136 ± 0.21	0.346 ± 0.17
SAGGSAGGSSPDIEVEITVDAPPGARILGTDGKPVEIPASNPKVKIIVIEGDNSFFIKTEPVGSAGGSAGGS [r12_338_TrMRF]	< -1	-0.362 ± 0.22
SAGGSAGGSGMVSSVVKHTVELNVPENRPNAEELAAELRAAHPGVTVVEITETPNKAVITVEESAGGSAGGS [r12_454_JUSTAS]	< -1	0.296 ± 0.062
SAGGSAGGEPITPEEAREIADYFMEEHGAKEVEVKVDPNGGIIKIDVTHPNDGRKYEREIQIEKSAGGSAGG [r6_550_TrROS]	< -1	0.142 ± 0.13
SAGGSAGGSAGGVKPGEVLPDGRLLVTWDEETNELTVYFEDTETITLKAPPPVVVSPEDLSAGGSAGGSAGG [r7_522_TrROS_Hall]	-0.614 ± 0.46	0.0426 ± 0.11
SAGGSAMIKTYEEEVELTVPGGSTPVKVRVKTIEKIEKDEKGNLKTEVVEVKIETPENAPAVALLLSAGGSA [r15_258_JUSTAS]	-0.857 ± 0.51	-0.327 ± 0.21
SAGGSAGGSAGGMTKISVNIVIYDPKNNTTKIIPITMSESEIKKVKEELVPKNMSAKILSAGGSAGGSAGGS [r10_397_JUSTAS]	0.191 ± 0.24	0.847 ± 0.12
